Laboratory results as given in US20210139548A1 (published 2021).
*1 amine or outer side, *2 acyl side, *3 side chain or, on linkers, in order; H or OH if unused. Side-chain parts run from the residue outwards. The star is where a group is joined. C18 diacid = O=C(O)CCCCCCCCCCCCCCCCC(=O)*; γGlu = O=C(O)[C@H](CCC(=O)[*:2])N[*:1]; Isovaleryl = CC(C)CC(=O)*; AEEA = NCCOCCOCC(=O)O

T1: human neuropeptide Y2 receptor (human, UniProt P49146 1-381)
T1 construct: whole, on cells; also called hNPY2 receptor; hNPY2-R
T1 sequence (looked up): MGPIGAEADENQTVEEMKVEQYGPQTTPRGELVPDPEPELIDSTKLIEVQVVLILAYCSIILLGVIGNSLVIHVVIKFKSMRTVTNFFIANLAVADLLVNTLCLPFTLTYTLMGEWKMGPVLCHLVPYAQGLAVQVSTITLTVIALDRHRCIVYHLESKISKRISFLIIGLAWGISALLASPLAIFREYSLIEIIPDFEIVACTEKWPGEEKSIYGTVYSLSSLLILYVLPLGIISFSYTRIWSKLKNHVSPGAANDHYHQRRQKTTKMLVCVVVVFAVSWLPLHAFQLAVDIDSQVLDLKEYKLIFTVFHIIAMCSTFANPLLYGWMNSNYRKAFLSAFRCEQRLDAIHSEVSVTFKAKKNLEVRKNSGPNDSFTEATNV

B1: Compound 131 (peptide)
peptide: Isovaleryl-APEK([AEEA-AEEA-γGlu-C18 diacid])AEEDASPEELQRYYVELRHYYNWLTRQRY-NH2
SMILES: CC(C)CC(=O)N[C@@H](C)C(=O)N1CCC[C@H]1C(=O)N[C@@H](CCC(=O)O)C(=O)N[C@@H](CCCCNC(=O)COCCOCCNC(=O)COCCOCCNC(=O)CC[C@H](NC(=O)CCCCCCCCCCCCCCCCC(=O)O)C(=O)O)C(=O)N[C@@H](C)C(=O)N[C@@H](CCC(=O)O)C(=O)N[C@@H](CCC(=O)O)C(=O)N[C@@H](CC(=O)O)C(=O)N[C@@H](C)C(=O)N[C@@H](CO)C(=O)N1CCC[C@H]1C(=O)N[C@@H](CCC(=O)O)C(=O)N[C@@H](CCC(=O)O)C(=O)N[C@@H](CC(C)C)C(=O)N[C@@H](CCC(N)=O)C(=O)N[C@@H](CCCNC(=N)N)C(=O)N[C@@H](Cc1ccc(O)cc1)C(=O)N[C@@H](Cc1ccc(O)cc1)C(=O)N[C@H](C(=O)N[C@@H](CCC(=O)O)C(=O)N[C@@H](CC(C)C)C(=O)N[C@@H](CCCNC(=N)N)C(=O)N[C@@H](Cc1c[nH]cn1)C(=O)N[C@@H](Cc1ccc(O)cc1)C(=O)N[C@@H](Cc1ccc(O)cc1)C(=O)N[C@@H](CC(N)=O)C(=O)N[C@@H](Cc1c[nH]c2ccccc12)C(=O)N[C@@H](CC(C)C)C(=O)N[C@H](C(=O)N[C@@H](CCCNC(=N)N)C(=O)N[C@@H](CCC(N)=O)C(=O)N[C@@H](CCCNC(=N)N)C(=O)N[C@@H](Cc1ccc(O)cc1)C(N)=O)[C@@H](C)O)C(C)C
B2: Compound 136 (peptide)
peptide: Isovaleryl-APEK([AEEA-AEEA-γGlu-C18 diacid])PEADSSPEELQRYYVSLRHYYNWLTRQRY-NH2
SMILES: CC(C)CC(=O)N[C@@H](C)C(=O)N1CCC[C@H]1C(=O)N[C@@H](CCC(=O)O)C(=O)N[C@@H](CCCCNC(=O)COCCOCCNC(=O)COCCOCCNC(=O)CC[C@H](NC(=O)CCCCCCCCCCCCCCCCC(=O)O)C(=O)O)C(=O)N1CCC[C@H]1C(=O)N[C@@H](CCC(=O)O)C(=O)N[C@@H](C)C(=O)N[C@@H](CC(=O)O)C(=O)N[C@@H](CO)C(=O)N[C@@H](CO)C(=O)N1CCC[C@H]1C(=O)N[C@@H](CCC(=O)O)C(=O)N[C@@H](CCC(=O)O)C(=O)N[C@@H](CC(C)C)C(=O)N[C@@H](CCC(N)=O)C(=O)N[C@@H](CCCNC(=N)N)C(=O)N[C@@H](Cc1ccc(O)cc1)C(=O)N[C@@H](Cc1ccc(O)cc1)C(=O)N[C@H](C(=O)N[C@@H](CO)C(=O)N[C@@H](CC(C)C)C(=O)N[C@@H](CCCNC(=N)N)C(=O)N[C@@H](Cc1c[nH]cn1)C(=O)N[C@@H](Cc1ccc(O)cc1)C(=O)N[C@@H](Cc1ccc(O)cc1)C(=O)N[C@@H](CC(N)=O)C(=O)N[C@@H](Cc1c[nH]c2ccccc12)C(=O)N[C@@H](CC(C)C)C(=O)N[C@H](C(=O)N[C@@H](CCCNC(=N)N)C(=O)N[C@@H](CCC(N)=O)C(=O)N[C@@H](CCCNC(=N)N)C(=O)N[C@@H](Cc1ccc(O)cc1)C(N)=O)[C@@H](C)O)C(C)C
B3: Compound 135 (peptide)
peptide: Isovaleryl-APEK([AEEA-AEEA-γGlu-C18 diacid])PEADASPEELQRYYVELRHYYNWLTRQRY-NH2
SMILES: CC(C)CC(=O)N[C@@H](C)C(=O)N1CCC[C@H]1C(=O)N[C@@H](CCC(=O)O)C(=O)N[C@@H](CCCCNC(=O)COCCOCCNC(=O)COCCOCCNC(=O)CC[C@H](NC(=O)CCCCCCCCCCCCCCCCC(=O)O)C(=O)O)C(=O)N1CCC[C@H]1C(=O)N[C@@H](CCC(=O)O)C(=O)N[C@@H](C)C(=O)N[C@@H](CC(=O)O)C(=O)N[C@@H](C)C(=O)N[C@@H](CO)C(=O)N1CCC[C@H]1C(=O)N[C@@H](CCC(=O)O)C(=O)N[C@@H](CCC(=O)O)C(=O)N[C@@H](CC(C)C)C(=O)N[C@@H](CCC(N)=O)C(=O)N[C@@H](CCCNC(=N)N)C(=O)N[C@@H](Cc1ccc(O)cc1)C(=O)N[C@@H](Cc1ccc(O)cc1)C(=O)N[C@H](C(=O)N[C@@H](CCC(=O)O)C(=O)N[C@@H](CC(C)C)C(=O)N[C@@H](CCCNC(=N)N)C(=O)N[C@@H](Cc1c[nH]cn1)C(=O)N[C@@H](Cc1ccc(O)cc1)C(=O)N[C@@H](Cc1ccc(O)cc1)C(=O)N[C@@H](CC(N)=O)C(=O)N[C@@H](Cc1c[nH]c2ccccc12)C(=O)N[C@@H](CC(C)C)C(=O)N[C@H](C(=O)N[C@@H](CCCNC(=N)N)C(=O)N[C@@H](CCC(N)=O)C(=O)N[C@@H](CCCNC(=N)N)C(=O)N[C@@H](Cc1ccc(O)cc1)C(N)=O)[C@@H](C)O)C(C)C
B4: Compound 134 (peptide)
peptide: Isovaleryl-APEK([AEEA-AEEA-γGlu-C18 diacid])PEEDASPEEIQRYYTELRHYYNWLTRQRY-NH2
SMILES: CC[C@H](C)[C@H](NC(=O)[C@H](CCC(=O)O)NC(=O)[C@H](CCC(=O)O)NC(=O)[C@@H]1CCCN1C(=O)[C@H](CO)NC(=O)[C@H](C)NC(=O)[C@H](CC(=O)O)NC(=O)[C@H](CCC(=O)O)NC(=O)[C@H](CCC(=O)O)NC(=O)[C@@H]1CCCN1C(=O)[C@H](CCCCNC(=O)COCCOCCNC(=O)COCCOCCNC(=O)CC[C@H](NC(=O)CCCCCCCCCCCCCCCCC(=O)O)C(=O)O)NC(=O)[C@H](CCC(=O)O)NC(=O)[C@@H]1CCCN1C(=O)[C@H](C)NC(=O)CC(C)C)C(=O)N[C@@H](CCC(N)=O)C(=O)N[C@@H](CCCNC(=N)N)C(=O)N[C@@H](Cc1ccc(O)cc1)C(=O)N[C@@H](Cc1ccc(O)cc1)C(=O)N[C@H](C(=O)N[C@@H](CCC(=O)O)C(=O)N[C@@H](CC(C)C)C(=O)N[C@@H](CCCNC(=N)N)C(=O)N[C@@H](Cc1c[nH]cn1)C(=O)N[C@@H](Cc1ccc(O)cc1)C(=O)N[C@@H](Cc1ccc(O)cc1)C(=O)N[C@@H](CC(N)=O)C(=O)N[C@@H](Cc1c[nH]c2ccccc12)C(=O)N[C@@H](CC(C)C)C(=O)N[C@H](C(=O)N[C@@H](CCCNC(=N)N)C(=O)N[C@@H](CCC(N)=O)C(=O)N[C@@H](CCCNC(=N)N)C(=O)N[C@@H](Cc1ccc(O)cc1)C(N)=O)[C@@H](C)O)[C@@H](C)O
B5: Compound 132 (peptide)
peptide: Isovaleryl-APEK([AEEA-AEEA-γGlu-C18 diacid])PEEDASPEELQKYYVTLRHYYNWLTRQRY-NH2
SMILES: CC(C)CC(=O)N[C@@H](C)C(=O)N1CCC[C@H]1C(=O)N[C@@H](CCC(=O)O)C(=O)N[C@@H](CCCCNC(=O)COCCOCCNC(=O)COCCOCCNC(=O)CC[C@H](NC(=O)CCCCCCCCCCCCCCCCC(=O)O)C(=O)O)C(=O)N1CCC[C@H]1C(=O)N[C@@H](CCC(=O)O)C(=O)N[C@@H](CCC(=O)O)C(=O)N[C@@H](CC(=O)O)C(=O)N[C@@H](C)C(=O)N[C@@H](CO)C(=O)N1CCC[C@H]1C(=O)N[C@@H](CCC(=O)O)C(=O)N[C@@H](CCC(=O)O)C(=O)N[C@@H](CC(C)C)C(=O)N[C@@H](CCC(N)=O)C(=O)N[C@@H](CCCCN)C(=O)N[C@@H](Cc1ccc(O)cc1)C(=O)N[C@@H](Cc1ccc(O)cc1)C(=O)N[C@H](C(=O)N[C@H](C(=O)N[C@@H](CC(C)C)C(=O)N[C@@H](CCCNC(=N)N)C(=O)N[C@@H](Cc1c[nH]cn1)C(=O)N[C@@H](Cc1ccc(O)cc1)C(=O)N[C@@H](Cc1ccc(O)cc1)C(=O)N[C@@H](CC(N)=O)C(=O)N[C@@H](Cc1c[nH]c2ccccc12)C(=O)N[C@@H](CC(C)C)C(=O)N[C@H](C(=O)N[C@@H](CCCNC(=N)N)C(=O)N[C@@H](CCC(N)=O)C(=O)N[C@@H](CCCNC(=N)N)C(=O)N[C@@H](Cc1ccc(O)cc1)C(N)=O)[C@@H](C)O)[C@@H](C)O)C(C)C
B6: Compound 133 (peptide)
peptide: Isovaleryl-APEK([AEEA-AEEA-γGlu-C18 diacid])PEEDASPEEVQRYYVELRHYYNWLTRQRY-NH2
SMILES: CC(C)CC(=O)N[C@@H](C)C(=O)N1CCC[C@H]1C(=O)N[C@@H](CCC(=O)O)C(=O)N[C@@H](CCCCNC(=O)COCCOCCNC(=O)COCCOCCNC(=O)CC[C@H](NC(=O)CCCCCCCCCCCCCCCCC(=O)O)C(=O)O)C(=O)N1CCC[C@H]1C(=O)N[C@@H](CCC(=O)O)C(=O)N[C@@H](CCC(=O)O)C(=O)N[C@@H](CC(=O)O)C(=O)N[C@@H](C)C(=O)N[C@@H](CO)C(=O)N1CCC[C@H]1C(=O)N[C@@H](CCC(=O)O)C(=O)N[C@@H](CCC(=O)O)C(=O)N[C@H](C(=O)N[C@@H](CCC(N)=O)C(=O)N[C@@H](CCCNC(=N)N)C(=O)N[C@@H](Cc1ccc(O)cc1)C(=O)N[C@@H](Cc1ccc(O)cc1)C(=O)N[C@H](C(=O)N[C@@H](CCC(=O)O)C(=O)N[C@@H](CC(C)C)C(=O)N[C@@H](CCCNC(=N)N)C(=O)N[C@@H](Cc1c[nH]cn1)C(=O)N[C@@H](Cc1ccc(O)cc1)C(=O)N[C@@H](Cc1ccc(O)cc1)C(=O)N[C@@H](CC(N)=O)C(=O)N[C@@H](Cc1c[nH]c2ccccc12)C(=O)N[C@@H](CC(C)C)C(=O)N[C@H](C(=O)N[C@@H](CCCNC(=N)N)C(=O)N[C@@H](CCC(N)=O)C(=O)N[C@@H](CCCNC(=N)N)C(=O)N[C@@H](Cc1ccc(O)cc1)C(N)=O)[C@@H](C)O)C(C)C)C(C)C

Target: T1, human neuropeptide Y2 receptor
Assay: radioligand competition (125I-PYY(1-36)), hNPY2R membranes
In short: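 Commercial human Y2 receptor membranes (0.5 μg protein/well) were incubated with peptide for 2 h at room temperature in 50 mM HEPES, 5 mM MgCl₂, 1 mM CaCl₂, pH 7.4, with 0.2% ovalbumin. Bound radioligand was separated on PEI-soaked GF/C filters and counted by scintillation, and IC₅₀ came from nonlinear sigmoidal regression.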

Binder	Ki [nM]
B1	8.54
B2	0.89
B3	1.31
B4	1.17
B5	1.18
B6	2.31
